± gives the standard error. For part of these data: Variants at the floor of the assay were thinned out.
B1: glmS ribozyme (parent)
chain: AUAAAAGCGCCAGAACUACAGAAAUGUAGUUGACGAGGAGGAGGUUUAUCGAAUUUUCGGCGGAUGCCUCCAAA

Experiments:
Details in all cases: with glucosamine-6-phosphate
glucosamine-6-phosphate [1] = variants of: B1; experiment: kcat; higher = faster cleavage; RNA array
In short: (§1)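 Tracking of barcoded ribozyme variants used a hybridised Cy3 probe at 37 °C, after in situ transcription by E. coli RNA polymerase on sequenced MiSeq chips. The flowed solution held 40 μM to 10 mM glucosamine-6-phosphate in HEPES/KCl/Mg(OAc)2 buffer, and imaging ran over ~14 h. kobs was taken from exponential decay fits of normalised per-tile medians, and kcat and KM from weighted Michaelis–Menten fits.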

glucosamine-6-phosphate [2] = variants of: B1; experiment: KM; higher = weaker cofactor use; RNA array
In short: as §1

glucosamine-6-phosphate [3] = variants of: B1; experiment: self-cleavage kobs at 160 uM GlcN6P; higher = faster cleavage; RNA array
In short: as §1

glucosamine-6-phosphate [4] = variants of: B1; experiment: self-cleavage kobs at 640 uM GlcN6P; higher = faster cleavage; RNA array
In short: as §1

glucosamine-6-phosphate [5] = variants of: B1; experiment: self-cleavage kobs at 2500 uM GlcN6P; higher = faster cleavage; RNA array
In short: as §1

glucosamine-6-phosphate [6] = variants of: B1; experiment: self-cleavage kobs at 10000 uM GlcN6P; higher = faster cleavage; RNA array
In short: as §1

glucosamine-6-phosphate [7] = variants of: B1; experiment: self-cleavage kobs at 40 uM GlcN6P; higher = faster cleavage; RNA array
In short: as §1

Variant	kcat (glucosamine-6-phosphate [1]) [s⁻¹]	KM (glucosamine-6-phosphate [2]) [µM]	self-cleavage kobs at 160 uM GlcN6P (glucosamine-6-phosphate [3]) [s⁻¹]	self-cleavage kobs at 640 uM GlcN6P (glucosamine-6-phosphate [4]) [s⁻¹]	self-cleavage kobs at 2500 uM GlcN6P (glucosamine-6-phosphate [5]) [s⁻¹]	self-cleavage kobs at 10000 uM GlcN6P (glucosamine-6-phosphate [6]) [s⁻¹]	self-cleavage kobs at 40 uM GlcN6P (glucosamine-6-phosphate [7]) [s⁻¹]
AUAAAAGCGCCAGAACUACAGAAAUGUAGUUGACGAGGAGUAGGUAUAUCGAAUUUUCGGCGGAUGCCUCCAAA [G41U U46A]	0.000481 ± 0.0001	2400 ± 860	4.83e-05 ± 1.9e-05	9.28e-05 ± 1.2e-05	0.000324 ± 5.4e-05	0.000362 ± 5.7e-05	
AUAAAAGCGCCAGAACUACAGAAAUGUAGUUGACGAGGAGGGGGUUUAUCGAAUUUUCGGCGGAUGCCUUCAAA [A42G C70U]	0.0228 ± 0.01		0.00157 ± 0.00029	0.00975 ± 0.0019	0.0261 ± 0.01	0.0178 ± 0.0045	0.000696 ± 0.0001
AUAAAAGCGCCAGAACUACAGAAAUGUAGUUGACGAGGAGGCGGUUUAUCGAAUUUUCGGCGGAUGGCUCCAAA [A42C C67G]	8.04e-05 ± 1.5e-05				6.32e-05 ± 1.4e-05	6.4e-05 ± 4.6e-06	
AUAAAAGCGCCAGAACUACAGAAAUGUAGUUGACGAGGAGGGGGAUUAUCGAAUUUUCGGCGGAUGCCUCCAAA [A42G U45A]	0.0167 ± 0.0051	303 ± 130	0.00634 ± 0.0022				0.00181 ± 0.00058
AUAAAAGCGCCAGAACUACAGAAAUGUAGUUGACGAGGAGGGGGUUGAUCGAAUUUUCGGCGGAUGCCUCCAAA [A42G U47G]	0.00929 ± 0.0033		0.00105 ± 0.00032	0.0029 ± 0.00064	0.0046 ± 0.001	0.0143 ± 0.0028	0.000293 ± 6.2e-05
AUAAAAGCGCCAGAACUACAGAAAUGUAGUUGACGAGGAGGGGGUUUCUCGAAUUUUCGGCGGAUGCCUCCAAA [A42G A48C]	0.00074 ± 0.00011	4500 ± 1200		9.68e-05 ± 2.1e-05	0.000276 ± 8.7e-05	0.000506 ± 7.8e-05	
AUAAAAGCGCCAGAACUACAGAAAUGUAGUUGACGAGGAGGUGGUUUAUCGAAUAUUCGGCGGAUGCCUCCAAA [A42U U55A]	0.000213 ± 6.1e-06	1260 ± 86		7.19e-05 ± 1.1e-05	0.000143 ± 2.6e-05	0.000188 ± 2.2e-05	
AUAAAAGCGCCAGAACUACAGAAAUGUAGUUGACGAGGAGGUUGUUUAUCGAAUUUUCGGAGGAUGCCUCCAAA [A42U G43U C61A]	2.03e-05 ± 2.4e-06						
AUAAAAGCGCCAGAACUACAGAAAUGUAGUUGACGAGGAGGUGGUUAAUCGAAUUUUCGGCGGAUGCCUCCAAA [A42U U47A]	0.00012 ± 2.9e-06	1210 ± 91		4.11e-05 ± 1.2e-05	8.23e-05 ± 1.3e-05	0.000106 ± 1.7e-05	
AUAAAAGCGCCAGAACUACAGAAAUGUAGUUGACGAGGAGUAGGUUGAUCGAAUUUUCGGCGGAUGCCUCCAAA [G41U U47G]	0.00121 ± 0.0005		3.94e-05 ± 1.2e-05	0.000221 ± 4.5e-05	0.000364 ± 8.6e-05	0.00093 ± 0.00013	4.35e-05 ± 1.2e-05
AUAAAAGCGCCAGAACUACAGAAAUGUAGUUGACGAGGAGUAGGUUAAUCGAAUUUUCGGCGGAUGCCUCCAAA [G41U U47A]	0.000627 ± 0.00021		0.000127 ± 3.9e-05	0.000232 ± 5.2e-05	0.000656 ± 0.00012	0.000706 ± 0.00012	7.19e-05 ± 1.3e-05
AUAAAAGCGCCAGAACUACAGAAAUGUAGUUGACGAGGAGGUGGUUUAUCGAAUUUUCGGCGGAUGCGUCCAAA [A42U C68G]	1.72e-05 ± 6.1e-06						
AUAAAAGCGCCAGAACUACAGAAAUGUAGUUGACGAGGAGGCGGUUUAUCGAAUUUUCGGCGGAUACCUCCAAA [A42C G66A]	0.000322 ± 2.8e-05	1090 ± 210		0.000125 ± 1.5e-05	0.000208 ± 2.9e-05	0.000305 ± 4.2e-05	
AUAAAAGCGCCAGAACUACAGAAAUGUAGUUGACGAGGAGUAGGUUUAUCGAAUCUUCGGCGGAUGCCUCCAAA [G41U U55C]	0.000532 ± 8.1e-05	4870 ± 1100	3.13e-05 ± 1.4e-05	6.02e-05 ± 7.7e-06	0.000181 ± 2e-05	0.000359 ± 5.4e-05	
AUAAAAGCGCCAGAACUACAGAAAUGUAGUUGACGAGGAGUAGGGUUAUCGAAUUUUCGGCGGAUGCCUCCAAA [G41U U45G]	0.000293 ± 5.4e-05	909 ± 340	3.13e-05 ± 1.4e-05	0.000129 ± 1.7e-05	0.000339 ± 9.1e-05	0.000243 ± 4.4e-05	
AUAAAAGCGCCAGAACUACAGAAAUGUAGUUGACGAGGAGGUGGUUUAUCGAAUUUUCGGCGGAUGACUCCAAA [A42U C67A]	0.00217 ± 0.00044	1400 ± 460	0.000151 ± 3.4e-05	0.00067 ± 9.7e-05	0.00183 ± 0.00029	0.00183 ± 0.00019	7.75e-05 ± 9.8e-06

— the supplement of paper PMC7125110
